Values quoted from earlier work, collected in article PMC2696053.

What was measured:
[1] = molecular target: Delta-like 1 (Homo sapiens) (UniProt O00548); test: surface plasmon resonance
[2] = molecular target: Delta ECD (Drosophila melanogaster) (UniProt P10041); test: ELISA
Chain of UniProt P10041 (P10041 19-596, stated change not applied): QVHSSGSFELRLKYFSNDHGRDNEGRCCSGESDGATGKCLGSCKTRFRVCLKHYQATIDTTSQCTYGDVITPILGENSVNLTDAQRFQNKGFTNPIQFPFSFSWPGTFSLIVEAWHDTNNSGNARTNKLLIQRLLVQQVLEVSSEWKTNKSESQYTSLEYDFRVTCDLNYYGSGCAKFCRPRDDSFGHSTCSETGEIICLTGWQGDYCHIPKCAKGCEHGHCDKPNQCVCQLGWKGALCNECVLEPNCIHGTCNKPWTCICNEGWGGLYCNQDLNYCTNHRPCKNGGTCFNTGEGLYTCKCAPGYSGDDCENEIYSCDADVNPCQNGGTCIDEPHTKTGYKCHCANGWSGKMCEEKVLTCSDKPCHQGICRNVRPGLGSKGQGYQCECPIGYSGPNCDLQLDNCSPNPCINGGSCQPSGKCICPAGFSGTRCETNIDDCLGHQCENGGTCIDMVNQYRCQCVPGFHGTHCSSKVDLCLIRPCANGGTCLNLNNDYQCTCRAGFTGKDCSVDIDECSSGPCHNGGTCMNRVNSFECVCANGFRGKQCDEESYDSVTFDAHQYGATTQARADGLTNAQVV

Chain of UniProt O00548 (O00548 18-545, stated change not applied): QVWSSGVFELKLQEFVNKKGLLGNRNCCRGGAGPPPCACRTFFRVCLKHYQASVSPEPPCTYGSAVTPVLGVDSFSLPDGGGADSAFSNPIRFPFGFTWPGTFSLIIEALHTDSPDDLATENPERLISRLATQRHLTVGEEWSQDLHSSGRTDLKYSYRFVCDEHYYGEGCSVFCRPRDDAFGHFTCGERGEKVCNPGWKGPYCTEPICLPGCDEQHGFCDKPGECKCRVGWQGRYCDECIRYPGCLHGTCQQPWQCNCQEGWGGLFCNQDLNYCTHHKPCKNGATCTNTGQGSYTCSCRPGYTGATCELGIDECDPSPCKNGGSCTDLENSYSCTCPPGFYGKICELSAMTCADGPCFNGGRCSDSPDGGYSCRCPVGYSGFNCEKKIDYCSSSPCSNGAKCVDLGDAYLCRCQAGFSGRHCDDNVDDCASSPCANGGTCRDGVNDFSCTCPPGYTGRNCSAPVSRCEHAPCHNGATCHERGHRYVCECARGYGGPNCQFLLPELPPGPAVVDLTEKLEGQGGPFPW

Kd [1] [µM]	Kd [2] [µM]	Substance
130		Notch1 EGF-like repeats 11-14 (from UniProt P46531)
	0.00187	Notch EGF-like repeats 11-20 (from UniProt P07207)
